From IntAct's records for PubMed 29039417

B1: Protein PTHB1 (Homo sapiens), Q3SYG4 (parent)
chain: MSLFKARDWWSTILGDKEEFDQGCLCLANVDNSGNGQDKIIVGSFMGYLRIFSPHPAKTGDGAQAEDLLLEVDLRDPVLQVEVGKFVSGTEMLHLAVLHSRKLCVYSVSGTLGNVEHGNQCQMKLMYEHNLQRTACNMTYGSFGGVKGRDLICIQSMDGMLMVFEQESYAFGRFLPGFLLPGPLAYSSRTDSFLTVSSCQQVESYKYQVLAFATDADKRQETEQQKLGSGKRLVVDWTLNIGEQALDICIVSFNQSASSVFVLGERNFFCLKDNGQIRFMKKLDWSPSCFLPYCSVSEGTINTLIGNHNNMLHIYQDVTLKWATQLPHIPVAVRVGCLHDLKGVIVTLSDDGHLQCSYLGTDPSLFQAPNVQSRELNYDELDVEMKELQKIIKDVNKSQGVWPMTEREDDLNVSVVVSPNFDSVSQATDVEVGTDLVPSVTVKVTLQNRVILQKAKLSVYVQPPLELTCDQFTFEFMTPDLTRTVSFSVYLKRSYTPSELEGNAVVSYSRPTDRNPDGIPRVIQCKFRLPLKLICLPGQPSKTASHKITIDTNKSPVSLLSLFPGFASQSDDDQVNVMGFHFLGGARITVLASKTSQRYRIQSEQFEDLWLITNELILRLQEYFEKQGVKDFACSFSGSIPLQEYFELIDHHFELRINGEKLEELLSERAVQFRAIQRRLLARFKDKTPAPLQHLDTLLDGTYKQVIALADAVEENQGNLFQSFTRLKSATHLVILLIALWQKLSADQVAILEAAFLPLQEDTQELGWEETVDAAISHLLKTCLSKSSKEQALNLNSQLNIPKDTSQLKKHITLLCDRLSKGGRLCLSTDAAAPQTMVMPGGCTTIPESDLEERSVEQDSTELFTNHRHLTAETPRPEVSPLQGVSE
partner: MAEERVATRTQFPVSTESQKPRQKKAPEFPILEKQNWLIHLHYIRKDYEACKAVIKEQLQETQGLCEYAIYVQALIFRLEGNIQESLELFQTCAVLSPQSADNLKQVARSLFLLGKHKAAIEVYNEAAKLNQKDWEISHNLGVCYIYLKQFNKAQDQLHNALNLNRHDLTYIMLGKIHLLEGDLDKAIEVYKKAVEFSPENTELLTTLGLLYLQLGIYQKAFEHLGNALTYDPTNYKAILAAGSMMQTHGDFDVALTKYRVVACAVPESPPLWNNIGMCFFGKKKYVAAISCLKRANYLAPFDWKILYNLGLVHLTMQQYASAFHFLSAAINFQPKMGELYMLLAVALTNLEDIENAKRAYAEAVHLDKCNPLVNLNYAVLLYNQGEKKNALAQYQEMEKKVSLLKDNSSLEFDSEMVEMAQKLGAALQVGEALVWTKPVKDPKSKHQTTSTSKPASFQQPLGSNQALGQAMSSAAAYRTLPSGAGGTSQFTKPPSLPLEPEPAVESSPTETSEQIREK

Variants of: B1
Conditions: with bbs4_human BBS4, Q96RK4

Variant	effect of a mutation on the interaction
D696V	disrupting interaction strength
D696A	with no effect
D696N	disrupting interaction strength
D696E	with no effect
L709A	with no effect
L709K	with no effect
A710K	with no effect
A710E	with no effect
F673A	with no effect
D700K	with no effect
D700A	with no effect
Q677Y	disrupting interaction strength
Q677A	with no effect
D711A	with no effect
F684K	with no effect
R679W	disrupting interaction strength
R679K	with no effect
R679L	disrupting interaction strength
A675K	with no effect
A675E	with no effect
A675H	disrupting interaction strength

Variant	effect of a mutation on the interaction
L698E	disrupting interaction strength
L698S	disrupting interaction strength
T702K	with no effect
T702R	disrupting interaction strength
T702E	with no effect
T702A	with no effect
K685E	disrupting interaction strength
G659E	with no effect
Q705A	with no effect
I707A	with no effect
I707K	with no effect
A682K	with no effect
K687A	with no effect
L699K	disrupting interaction strength
L699E	with no effect
L699A	with no effect
L680K	with no effect
L681E	with no effect
L665R	disrupting interaction strength
H694A	with no effect
L695A	with no effect

Variant	effect of a mutation on the interaction
L695M	disrupting interaction strength
E663A	with no effect
E663K	with no effect
L666E	disrupting interaction strength
L666A	with no effect
R669K	with no effect
R669A	with no effect
R669E	with no effect
T697E	with no effect
T697K	with no effect
T688K	with no effect
D686K	with no effect
P691A	with no effect
P691K	with no effect
P691L	disrupting interaction strength
P691E	with no effect
P689A	with no effect
S667A	with no effect
K704E	with no effect
G701E	disrupting interaction strength
G701A	with no effect

Variant	effect of a mutation on the interaction
E660A	with no effect
E660K	with no effect
Q672E	with no effect
Q672K	with no effect
L662E	with no effect
L662K	with no effect
V671E	with no effect
V671I	disrupting interaction strength
L692E	with no effect
L692A	disrupting interaction strength
R678A	with no effect
R678H	disrupting interaction strength
R678G	disrupting interaction strength
E664A	with no effect
Q693K	with no effect
Q693E	with no effect
R674A	disrupting interaction strength
R674K	with no effect
R674W	disrupting interaction strength

Results, then the variant that gave them:

effect of a mutation on the interaction	Variant
with no effect	Y703K
with no effect	Y703E
with no effect	Y703A
disrupting interaction strength	Y703H
with no effect	D696K
with no effect	L709E
with no effect	A708E
with no effect	A708K
with no effect	F673E
with no effect	F673K
with no effect	D700E
with no effect	K661A
with no effect	K661E
with no effect	Q677K
with no effect	Q677E
with no effect	I676K
with no effect	I676E
with no effect	I676A
disrupting interaction strength	A690K
with no effect	A690E
disrupting interaction strength	A690V
with no effect	R683E

effect of a mutation on the interaction	Variant
with no effect	R683K
with no effect	R683A
with no effect	F684A
with no effect	F684E
with no effect	R679E
with no effect	R679A
with no effect	L698A
with no effect	L698K
disrupting interaction strength	T702C
with no effect	K685A
with no effect	G659K
disrupting interaction strength	Q705M
with no effect	Q705K
with no effect	Q705E
with no effect	I707E
with no effect	A682E
with no effect	K687E
with no effect	L680E
with no effect	L680A
with no effect	L681A
with no effect	L681K
with no effect	L665E

effect of a mutation on the interaction	Variant
with no effect	L665A
with no effect	L665K
disrupting interaction strength	L665F
disrupting interaction strength	H694Y
with no effect	H694K
disrupting interaction strength	H694E
with no effect	L695E
with no effect	L695K
with no effect	L666K
with no effect	T697A
disrupting interaction strength	T697C
with no effect	T688A
with no effect	T688E
with no effect	D686A
with no effect	D686E
disrupting interaction strength	P691S
with no effect	P689K
with no effect	P689E
with no effect	E668K
with no effect	E668A
with no effect	S667K
with no effect	S667E

effect of a mutation on the interaction	Variant
with no effect	A670K
with no effect	A670E
with no effect	K704A
with no effect	G701K
with no effect	V706A
with no effect	V706E
with no effect	V706K
with no effect	Q672A
with no effect	L662A
disrupting interaction strength	V671R
with no effect	V671K
with no effect	V671A
with no effect	L692K
with no effect	R678E
disrupting interaction strength	R678K
with no effect	E664K
disrupting interaction strength	Q693A
disrupting interaction strength	R674Q
disrupting interaction strength	R674P
with no effect	R674E
